Literature values, collected in PMC5418926.

Target: Lys53 (UniProt position 53, YGGQTKPIFRK)
Assay: chemical modification (inferred: crosslinking with periodate-oxidised tRNA); not described in this article

In the case of “60S ribosomal protein eL42 (L36a-like / RPL36AL), endogenous, in the human 80S ribosome (Homo sapiens)”, the pKa (endogenous eL42 in situ in the human 80S ribosome, crosslinked with tRNAox) is given as 6.9 ± 0.1.

For “60S ribosomal protein eL42 (formerly L36a / RPL36A), recombinant (Homo sapiens)”, the pKa (recombinant eL42 off the ribosome) is listed as 6.9 + 0.1.
